Consider 1 substance from article PMC10292035.

This test addresses E. cloacae Cap2 C109A/C548A (catalytically dead), untagged (Enterobacter cloacae). Kind of test: cryo-EM structure.

“E. cloacae Cap2 C109A/C548A (catalytically dead), untagged (enzyme)” displayed a stoichiometry N of 2.
